Source: patent publication US20110008356A1
Values belong to the binder of their own block, whether it stands above or below them.

How the values were obtained:
[1] = target: Human IL-17RA:Fc (human), Q96F46; assay: SPR (BIAcore 3000), receptor:Fc captured by anti-human Fc, cytokine as analyte, koff/kon, 1:1 Langmuir fit; settings: remark: other sources report otherwise
Human IL-17RC:Fc (human) = Human IL-17RC:Fc (human) (UniProt Q8NAC3); assay: as above

Kd [1]: 100 nM
B1: Human IL-17F, Q96PD4 31-163 (ligand, UniProt Q96PD4 31-163, looked up)
chain: RKIPKVGHTFFQKPESCPPVPGGSMKLDIGIINENQRVSMSRNIESRSTSPWNYTVTWDPNRYPSEVVQAQCRNLGCINAQGKEDISMNSVPIQQETLVVRRKHQGCSVSFQLEKVLVTVGCTCVTPVIHHVQ

Kd (Human IL-17RC:Fc (human)): 0.1 nM
B2: Human IL-17F (ligand, UniProt Q96PD4 31-163, looked up)
chain: B1 chain
